EC50, S/B and Kd data for 17 substances are collected here from patent US20240361334A1.

Test [1] concerns the target human C1q protein (Sigma-Aldrich #C1740) (human) (UniProt P02745). Nature of the test: HTRF sandwich, biotin-anti-human Fab 1/SA-d2, Eu-anti-C1q, buffer 2, with 150 nM human TNF-α.
Test [2] has the same target. Nature of the test: HTRF sandwich, biotin-Protein L/SA-d2, Eu-anti-C1q.
Test [3] shares this target. Kind of test: HTRF sandwich, biotin-anti-human Fab 2/SA-d2, Eu-anti-C1q.
The target is the same in test [4]. Nature of the test: HTRF sandwich, biotin-anti-human Fab 1/SA-d2, Eu-anti-C1q, buffer 2.
The target of test [5] is Human myeloma IgG1 purified from human plasma (Sigma-Aldrich #I5154). Nature of the test: HTRF saturation binding, anti-Fab-d2 on Eu cryptate-IgG.
Test [6] has as its target Human myeloma IgG4 purified from human plasma (Sigma-Aldrich #I4764). The test is described as above.
The target of test [7] is Human myeloma IgG1 purified from human plasma (Sigma-Aldrich #I5154). Nature of the test: HTRF saturation binding, biotin-anti-Fab/SA-d2 on Eu cryptate-IgG.
The target in test [8] is Human myeloma IgG2 purified from human plasma (Sigma-Aldrich #I5404). The test is described as above.
Test [9] deals with Human myeloma IgG4 purified from human plasma (Sigma-Aldrich #I4764). Described as above.
Test [10] has as its target human C1q protein (Sigma-Aldrich #C1740) (human) (UniProt P02745). Kind of test: HTRF sandwich, biotin-anti-human Fab 1/SA-d2, Eu-anti-C1q, buffer 1.
For test [11] the target is unchanged. Nature of the test: HTRF sandwich, 30 nM biotin-anti-human Fab 1/SA-d2, Eu-anti-C1q, buffer 2.
For test [12] the target is unchanged. Kind of test: HTRF sandwich, 50 nM biotin-anti-human Fab 1/SA-d2, Eu-anti-C1q, buffer 2.
Test [13] has the same target. Kind of test: HTRF sandwich, biotin-anti-human Fab 1/SA-d2, Tb cryptate-C1q.
Test [14] shares this target. Nature of the test: AlphaLISA sandwich, biotin-anti-human Fab 1/streptavidin donor beads, anti-C1q acceptor beads.
Test [15] shares this target. Kind of test: HTRF sandwich, 40 nM biotin-anti-human Fab 1/SA-d2, Eu-anti-C1q, buffer 2.
Test [16] has the same target. Kind of test: HTRF sandwich, biotin-anti-human Fab 1/SA-d2, Eu-anti-C1q, 135 mM NaCl.
Test [17] shares this target. Kind of test: HTRF sandwich, biotin-anti-human Fab 1/SA-d2, Eu-anti-C1q, 155 mM NaCl.
The target is the same in test [18]. Kind of test: HTRF sandwich, anti-human Fab 2-d2 without streptavidin, Eu-anti-C1q.

Sequence of Adalimumab (+150 nM TNF-α) (P01375 77-233): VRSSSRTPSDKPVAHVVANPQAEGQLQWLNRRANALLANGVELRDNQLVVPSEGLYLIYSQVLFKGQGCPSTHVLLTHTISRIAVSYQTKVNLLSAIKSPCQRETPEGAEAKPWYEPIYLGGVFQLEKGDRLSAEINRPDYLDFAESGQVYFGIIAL

Consider “Adalimumab (+150 nM TNF-α) (from UniProt P01375 77-233)”, for which, in test [1], the EC50 was 4.6 nM and the S/B was found to be 6.9.

With Adalimumab (antibody), the concentration giving a half-maximal response (EC50) in test [2] worked out at 69.8 nM; in [3], 8 nM; in test [4], 7.2 nM.

As for “Anti-human Fab 1: anti-human IgG Fab, mouse IgG2b, monoclonal antibody, clone 4A11 (ThermoFisher Scientific #SA1-19255)”, the Kd in test [5] is 0.16 nM; in test [6], 0.44 nM; in [7], 0.2 nM; in test [8], 0.37 nM; in test [9], 0.33 nM.

With “Anti-human Fab 2: anti-human IgG Fab, mouse IgG2b, monoclonal antibody, clone 2A11 (GeneTex #GTX27497)”, the Kd turned out to be 0.2 nM in test [5]; 0.45 nM in test [6]; 0.26 nM in test [7]; 0.47 nM in test [8]; 0.4 nM in test [9].

For Atezolizumab (antibody), the values for the EC50 in test [10], in [11] and in [12] were 13.2 nM, 7.2 nM and 10.9 nM, respectively.

Substance Cetuximab (antibody) displayed an EC50 in [10] of 16.9 nM.

In test [10], “Cetuximab IgG2 isotype (InvivoGen #hegfr-mab2) (from UniProt P01859 1-326) (antibody)” showed an EC50 of 48 nM.

Turning to “Human IgG1 Isotype Control Recombinant Antibody (BioLegend #403502)”, the EC50 stood at 13.7 nM in test [13], 17.3 nM in test [10] and 23.7 nM in test [14]. In addition, the S/B in test [14] is 752.

As to “Human IgG2 Isotype Control Recombinant Antibody (BioLegend #403602)”, the EC50 worked out at 73.6 nM in test [13]; 34 nM in test [10]; 19.2 nM in test [11]; 25.7 nM in test [15]; 30.6 nM in test [12].

On to Ipilimumab (antibody), for which the EC50 in test [10] amounted to 13.2 nM.

In test [10], “Ipilimumab IgG2 isotype (InvivoGen #hctla4-mab2) (from UniProt P01859 1-326) (antibody)” registered an EC50 of 53.3 nM.

Turning to “Non-fucosylated Rituximab (InvivoGen #hcd20-mab13) (from UniProt P01857 1-330) (antibody)”, the EC50 in test [10] is 16.2 nM.

As to “Non-glycosylated Cetuximab (InvivoGen #hegfr-mab12) (antibody)”, in test [10], the EC50 was 10.2 nM and the S/B stood at 1.4.

For “Non-glycosylated Rituximab (InvivoGen #hcd20-mab12) (antibody)”, the EC50 in [10] turned out to be 25 nM.

On to Obinutuzumab (antibody), for which the EC50 was found to be 18.6 nM in test [10], 18.6 nM in [16] and 19.7 nM in test [17]. In test [17], this substance displayed a S/B of 1.6.

Rituximab (antibody): the EC50 in test [3] came out at 11.7 nM; in [13] it was 14.4 nM; in [10] it was 15.5 nM; in [18], 24 nM; in [16], 15.5 nM; in test [17], 28.9 nM. This substance had an EC50 in [14] of 26.8 nM.

As for “Rituximab IgG2 isotype (InvivoGen #hcd20-mab2) (from UniProt P01859 1-326) (antibody)”, the EC50 in test [10] came to 38.7 nM; in test [16] it was 38.3 nM; in test [17], 37.6 nM.
